In US20210277102A1, “COMPOSITIONS AND METHODS FOR TREATING A TUMOR SUPPRESSOR DEFICIENT CANCER” (BETH ISRAEL DEACONESS MEDICAL CENTER, INC., priority 2016, published 2021):

What was measured:
[1] = biological target: mouse GPR35 (Mus musculus, UniProt Q9ES90); conditions: in vitro; cited from earlier work
[2] = biological target: T1, GPR35 (Homo sapiens, UniProt Q9HC97); conditions: in vitro; cited from earlier work
Target sequence in this assay (Q9HC97 whole entry): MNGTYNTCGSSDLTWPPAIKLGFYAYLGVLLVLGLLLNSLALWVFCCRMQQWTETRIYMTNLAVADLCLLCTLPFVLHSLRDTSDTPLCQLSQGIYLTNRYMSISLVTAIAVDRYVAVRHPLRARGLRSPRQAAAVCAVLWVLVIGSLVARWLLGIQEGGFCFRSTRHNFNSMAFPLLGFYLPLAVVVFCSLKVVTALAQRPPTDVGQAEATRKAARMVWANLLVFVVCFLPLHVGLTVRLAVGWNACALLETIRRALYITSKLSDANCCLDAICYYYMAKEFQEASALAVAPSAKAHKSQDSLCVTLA

[3] = test system: prostate cancer; conditions: phase III clinical trial in prostate cancer, unselected patients; cited from earlier work
[4] = test system: Gr1+ cells isolated from the bone marrow of healthy mice; assay: Transwell migration assay with recombinant proteins, Gr1+ cells; assay type: cell-based, mouse; conditions: Gr1+ cells mostly Ly6G+/Ly6C^int PMN cells; increasing concentration of recombinant protein
Text: (§1) Gr1+ cells and monocytes were isolated from the bone marrow (tibias and femurs) of C57BL/6 wild type, 3 months old mice using the MACS Myltenyi Biotec Cell Isolation system according to the manufacturer's instruction. For monocytes isolation the Monocyte Isolation Kit (BM) (Miltenyi 130-100-629) was used, whereas Gr1 positive cells were isolated using the antibody Anti-Gr-1-Biotin, clone RB6-8C5 (Miltenyi 130-101-894). Red blood cells were lysed with the ACK lysis buffer (ThermoFisher Scientific A1049201). Total bone marrow cells and Gr1+ cells were cultured for 4 days. Briefly, 40 ng/ml GM-CSF (PeproTech #315-03) and 40 ng/ml IL-6 (PeproTech #216-16) were added to the control medium RPMI 1640 (ThermoFisher Scientific 11875-093), supplemented with penicillin-streptomycin, 10% FBS, 10 mM HEPES, 20 μM 2-Mercaptoethanol. Either recombinant mouse CXCL5 (BioLegend #573302) or recombinant mouse CXCL17 (BioLegend #585402) was added at the beginning of the experiment (200 nM). For the migration assay 2.5×10^5 MACS sorted cells were resuspended in 100 μL of either RPMI 1640 control medium or organoid complete medium and placed on the upper well of the transwell system (5 μm, Corning #160241). […] The migration of cells was quantified by flow cytometry, 15 seconds acquisition time, using BD LSR II flow cytometer.

[5] = test system: whole bone marrow (BM) mouse cells and Gr1+ cells isolated from the BM; assay: 4-day culture of bone marrow and Gr1+ cells in GM-CSF, IL-6 medium plus recombinant chemokine (flow analysis, qRT-PCR); assay type: cell-based; conditions: 4 days culture, GM-CSF and IL-6, recombinant chemokine 200 nM
Text: Gr1+ cells and monocytes were isolated from the bone marrow (tibias and femurs) of C57BL/6 wild type, 3 months old mice using the MACS Myltenyi Biotec Cell Isolation system according to the manufacturer's instruction. For monocytes isolation the Monocyte Isolation Kit (BM) (Miltenyi 130-100-629) was used, whereas Gr1 positive cells were isolated using the antibody Anti-Gr-1-Biotin, clone RB6-8C5 (Miltenyi 130-101-894). Red blood cells were lysed with the ACK lysis buffer (ThermoFisher Scientific A1049201). Total bone marrow cells and Gr1+ cells were cultured for 4 days. Briefly, 40 ng/ml GM-CSF (PeproTech #315-03) and 40 ng/ml IL-6 (PeproTech #216-16) were added to the control medium RPMI 1640 (ThermoFisher Scientific 11875-093), supplemented with penicillin-streptomycin, 10% FBS, 10 mM HEPES, 20 μM 2-Mercaptoethanol. Either recombinant mouse CXCL5 (BioLegend #573302) or recombinant mouse CXCL17 (BioLegend #585402) was added at the beginning of the experiment (200 nM). For the migration assay 2.5×10^5 MACS sorted cells were resuspended in 100 μL of either RPMI 1640 control medium or organoid complete medium and placed on the upper well of the transwell system (5 μm, Corning #160241). The migration assay with recombinant proteins was performed by adding to the bottom well 600 μL of RMPI1640 control medium supplemented with the indicated amount of either CXCL5 or CXCL17. The migration assay with organoid conditioned medium was performed by adding to the bottom well 600 μL of medium collected over 5 days of culture of prostate organoids with the indicated genotype. The migration of cells was quantified by flow cytometry, 15 seconds acquisition time, using BD LSR II flow cytometer.
For Flow Cytometry, spleen and lymph node single cell suspensions were prepared by mashing the tissue in 2% FBS/PBS. Tumor and control prostate tissue (from anterior lobes) single cell suspension was prepared by mincing the tumor and digestion with Collagenase Type I (Life Technologies #17018029) in 10% DMEM (GIBCO) for 1 hr at 37° C. Cell suspensions were passed through […] cell strainers to obtain single cell suspensions. Blood samples and single cell suspensions were re-suspended in 1-2 ml of ACK red cell lysis buffer (GIBCO) and lysed on ice for 1 minute. Cell suspensions were then washed in 2% FBS/PBS, centrifuged and re-suspended in 0.5-1 ml of 2% FBS/PBS. For flow cytometry, 100 μl of cell suspension was stained in a 96-well U-bottom plate and the following antibodies were used: CD45.2-Pacific Blue (BioLegend #109820), CD45.2-APC (eBioscience #17-0454-82), CD45.2-FITC (eBioscience #11-0454-85), Gr-1-FITC (eBioscience #11-5931), Gr-1-PE (eBioscience #12-5931-81), CD11b-PECy7 (eBioscience #25-0112), CD11b-FITC (eBioscience #11-0112-82), Ly6C-PE (eBioscience #12-5932-80), Ly6G-APC-Cy7 (BioLegend #127623), Ly6G-APC (BioLegend #127613), CD3-PE (eBioscience #12-0031), CD4-APC (BioLegend #100515), CD4-PE-Cy7 (eBioscience #25-0042-82), CD8-APC (BioLegend #100721), CD8-FITC (eBioscience #11-0081-85), B220-FITC (eBioscience #11-0452), CD19-PerCP-Cy5.5 (eBioscience #45-0193), F4/80-APC (eBioscience #17-4801), CD44-FITC (BD Pharmingen #561859), CD62L-APC (BioLegend #104411), CD206-PE (BioLegend #141705) and CD49f-APC (eBioscience #17-0495). All antibodies were used 1:100. To assess cell viability, cells were incubated with either DAPI or TO-PRO3 prior to FACS analysis. Foxp3 staining was done using FOXP3 Fix/Perm Buffer Set (BioLegend) and cells were stained by Foxp3-FITC antibody (eBioscience #11-5773). All staining mixtures were analyzed on a BD LSR II flow cytometer (Becton Dickinson). Resulting profiles were further processed and analyzed using the FlowJo 8.7 software.
Microarray analysis and gene set enrichment analysis on mouse tumor tissue were conducted and analyzed as previously described by Palucka, A. K. et al. (Palucka, A. K. et al. Cell 164, 1233-1247 (2016)). […]

[6] = test system: monocytes isolated from the bone marrow of healthy mice; assay: Transwell migration assay with recombinant proteins, monocytes; assay type: cell-based, mouse; conditions: increasing concentration of recombinant protein in bottom well
Text: as §1

[7] = biological target: T1, GPR35; conditions: cited from earlier work
Target sequence in this assay (Q9HC97 whole entry, species assumed): as the sequence (Q9HC97 whole entry) above

Chain of mouse GPR35 (Q9ES90 whole entry): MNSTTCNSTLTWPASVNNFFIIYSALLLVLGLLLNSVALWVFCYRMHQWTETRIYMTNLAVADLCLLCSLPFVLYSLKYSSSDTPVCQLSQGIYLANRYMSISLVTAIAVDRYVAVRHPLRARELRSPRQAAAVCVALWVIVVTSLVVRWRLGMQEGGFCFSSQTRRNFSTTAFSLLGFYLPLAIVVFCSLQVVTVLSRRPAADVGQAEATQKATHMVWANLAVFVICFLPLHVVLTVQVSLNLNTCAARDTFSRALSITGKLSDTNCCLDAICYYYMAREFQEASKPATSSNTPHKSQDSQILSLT

Molecule: CC(/C=C1\SC(=S)N(CCCC(=O)Nc2ccc(C(=O)O)c(O)c2)C1=O)=C\c1ccccc1 [ML145]
- antagonist activity at mouse GPR35 [1]: in vitro antagonist activity

Molecule: COC(=O)c1cnn(-c2ccc(F)cc2F)c1/C=N/NC(=S)NC(C)(C)C [CID2745687]
- antagonist activity at human GPR35 [2]: in vitro antagonist activity
- antagonist activity at mouse GPR35 [1]: in vitro antagonist activity

Molecule: COc1cccc2c1c(O)c(C(=O)N(C)c1ccc(C(F)(F)F)cc1)c(=O)n2C [Tasquinimod]
- survival benefit [3]: failed to show a clear survival benefit

B1: CXCL5: recombinant mouse CXCL5 (BioLegend #573302) (protein, UniProt P50228 41-132, looked up)
C-X-C motif chemokine 5: APSSVIAATELRCVCLTVTPKINPKLIANLEVIPAGPQCPTVEVIAKLKNQKEVCLDPEAPVIKKIIQKILGSDKKKAKRNALAVERTASVQ
- migration of Gr1+ cells toward medium with recombinant protein [4]: chemoattractants for PMN
- expression of the Ly6C and Ly6G markers (flow analysis) [5]: did not observe any significant difference
- expression profile of the genes tested (qRT-PCR) [5]: did not observe any significant difference
- expression of the Ly6C and Ly6G markers (flow analysis) ([5]; listed as recombinant CXCL5): did not show significant changes

B2: CXCL17: recombinant mouse CXCL17 (BioLegend #585402); chemokine ligand of GPR35 (protein, UniProt Q5UW37 23-119, looked up)
C-X-C motif chemokine 17: SPNPGVARSHGDQHLAPRRWLLEGGQECECKDWFLQAPKRKATAVLGPPRKQCPCDHVKGREKKNRHQKHHRKSQRPSRACQQFLKRCHLASFALPL
- migration of monocytes toward medium with recombinant protein [6]: concentration-dependent effect
- migration of Gr1+ cells toward medium with recombinant protein [4]: only on monocytes
- expression of the Ly6C and Ly6G markers (flow analysis) [5]: did not observe any significant difference
- expression profile of the genes tested (qRT-PCR) [5]: did not observe any significant difference
- expression of the Ly6C and Ly6G markers (flow analysis) ([5]; listed as recombinant CXCL17): did not show significant changes
- concentration range of GPR35-CXCL17 mediated functional responses [7]: ~50 nM
